Data taken from publication PMC8599806.

Biological target: RECQL (UniProt P46063)
Assay: ID3 co-IP, Western blot
Settings: reference: wild type ID3; sites S65

ID3 (from UniProt Q02535) S65A
binding against the reference: lost
